{
  "source": "patent US20150011567",
  "key": {"[1]": {"target": "T1, biotinylated H4-derived unphosphorylated peptide TVTAMDVVYALKRQGRT", "T1 chain": "TVTAMDVVYALKRQGRT"}, "[2]": {"target": "purified human H3 recombinant protein (NEB), P20929"}, "[3]": {"target": "purified human H4 recombinant protein (NEB), P62805"}},
  "data": [
    {"protein": "purified Ack1 (protein) MQPEEGTGWLLELLSEVQLQQYFLRLRDDLNVTRLSHFEYVKNEDLEKIGMGRPGQRRLWEAVKRRKALCKRKSWMSKVFSGKRLEAEFPPHHSQSTFRKTSPAPGGPAGEGPLQSLTCLIGEKDLRLLEKLGDGSFGVVRRGEWDAPSGKTVSVAVKCLKPDVLSQPEAMDDFIREVNAMHSLDHRNLIRLYGVVLTPPMKMVTELAPLGSLLDRLRKHQGHFLLGTLSRYAVQVAEGMGYLESKRFIHRDLAARNLLLATRDLVKIGDFGLMRALPQNDDHYVMQEHRKVPFAWCAPESLKTRTFSHASDTWMFGVTLWEMFTYGQEPWIGLNGSQILHKIDKEGERLPRPEDCPQDIYNVMVQCWAHKPEDRPTFVALRDFLLEAQPTDMRALQDFEEPDKLHIQMNDVITVIEGRAENYWWRGQNTRTLCVGPFPRNVVTSVAGLSAQDISQPLQNSFIHTGHGDSDPRHCWGFPDRIDELYLGNPMDPPDLLSVELSTSRPPQHLGGVKKPTYDPVSEDQDPLSSDFKRLGLRKPGLPRGLWLAKPSARVPGTKASRGSGAEVTLIDFGEEPVVPALRPCAPSLAQLAMDACSLLDETPPQSPTRALPRPLHPTPVVDWDARPLPPPPAYDDVAQDEDDFEICSINSTLVGAGVPAGPSQGQTNYAFVPEQARPPPPLEDNLFLPPQGGGKPPSSAQTAEIFQALQQECMRQLQAPAGSPAPSPSPGGDDKPQVPPRVPIPPRPTRPHVQLSPAPPGEEETSQWPGPASPPRVPPREPLSPQGSRTPSPLVPPGSSPLPPRLSSSPGKTMPTTQSFASDPKYATPQVIQAPGPRAGPCILPIVRDGKKVSSTHYYLLPERPSYLERYQRFLREAQSPEEPTPLPVPLLLPPPSTPAPAAPTATVRPMPQAALDPKANFSTNNSNPGARPPPPRATARLPQRGCPGDGPEAGRPADKIQMAMVHGVTTEECQAALQCHGWSVQRAAQYLKVEQLFGLGLRPRGECHKVLEMFDWNLEQAGCHLLGSWGPAHHKR", "values": [
      {"measurement": "in vitro kinase assay on plate-bound peptide, ELISA with pY88-H4 antibodies", "setting": "[1]", "result": "Incubation of H4 peptide with WEE1 and Ack1 protein resulted in robust H4 Tyr88-phosphorylation"},
      {"measurement": "in vitro kinase reaction, immunoblot with pTyr99-H3 antibody", "setting": "[2]", "result": "Ack1 directly phosphorylates histone H3 at Tyr99"}
    ]},
    {"protein": "purified constitutively active E346K-Ack1 (protein) MQPEEGTGWLLELLSEVQLQQYFLRLRDDLNVTRLSHFEYVKNEDLEKIGMGRPGQRRLWEAVKRRKALCKRKSWMSKVFSGKRLEAEFPPHHSQSTFRKTSPAPGGPAGEGPLQSLTCLIGEKDLRLLEKLGDGSFGVVRRGEWDAPSGKTVSVAVKCLKPDVLSQPEAMDDFIREVNAMHSLDHRNLIRLYGVVLTPPMKMVTELAPLGSLLDRLRKHQGHFLLGTLSRYAVQVAEGMGYLESKRFIHRDLAARNLLLATRDLVKIGDFGLMRALPQNDDHYVMQEHRKVPFAWCAPESLKTRTFSHASDTWMFGVTLWEMFTYGQEPWIGLNGSQILHKIDKKGERLPRPEDCPQDIYNVMVQCWAHKPEDRPTFVALRDFLLEAQPTDMRALQDFEEPDKLHIQMNDVITVIEGRAENYWWRGQNTRTLCVGPFPRNVVTSVAGLSAQDISQPLQNSFIHTGHGDSDPRHCWGFPDRIDELYLGNPMDPPDLLSVELSTSRPPQHLGGVKKPTYDPVSEDQDPLSSDFKRLGLRKPGLPRGLWLAKPSARVPGTKASRGSGAEVTLIDFGEEPVVPALRPCAPSLAQLAMDACSLLDETPPQSPTRALPRPLHPTPVVDWDARPLPPPPAYDDVAQDEDDFEICSINSTLVGAGVPAGPSQGQTNYAFVPEQARPPPPLEDNLFLPPQGGGKPPSSAQTAEIFQALQQECMRQLQAPAGSPAPSPSPGGDDKPQVPPRVPIPPRPTRPHVQLSPAPPGEEETSQWPGPASPPRVPPREPLSPQGSRTPSPLVPPGSSPLPPRLSSSPGKTMPTTQSFASDPKYATPQVIQAPGPRAGPCILPIVRDGKKVSSTHYYLLPERPSYLERYQRFLREAQSPEEPTPLPVPLLLPPPSTPAPAAPTATVRPMPQAALDPKANFSTNNSNPGARPPPPRATARLPQRGCPGDGPEAGRPADKIQMAMVHGVTTEECQAALQCHGWSVQRAAQYLKVEQLFGLGLRPRGECHKVLEMFDWNLEQAGCHLLGSWGPAHHKR", "values": [
      {"measurement": "in vitro kinase assay, immunoblot with pTyr51-H4 antibody", "setting": "[3]", "result": "When purified E346K-Ack1 and H4 were incubated, H4 was Tyr51-phosphorylated"}
    ]}
  ]
}
